Results from paper PMC9482650, “Quantitative fragmentomics allow affinity mapping of interactomes” (Nature Communications, 2022).

Columns and labels:
Experiment in all cases: holdup assay
Parameters in all cases: key: below the threshold = too weak to quantify, mostly under pKd 3.1 to 4
Conditions in all cases: plain residues with an end cap or a label only (N-terminal biotin on a linker: ado-ado)
[1] = molecular target: MAST1, Q9Y2H9
[2] = molecular target: PDZRN4_1, Q6ZMN7
[3] = molecular target: T1, PTPN13_1, Q12923
T1 sequence (Q12923 1088-1188, limits assumed, looked up): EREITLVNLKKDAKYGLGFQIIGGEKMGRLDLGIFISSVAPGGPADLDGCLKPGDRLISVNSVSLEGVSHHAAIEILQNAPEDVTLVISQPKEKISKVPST

[4] = molecular target: T2, MPDZ_12, O75970
T2 sequence (O75970 1857-1958, limits assumed, looked up): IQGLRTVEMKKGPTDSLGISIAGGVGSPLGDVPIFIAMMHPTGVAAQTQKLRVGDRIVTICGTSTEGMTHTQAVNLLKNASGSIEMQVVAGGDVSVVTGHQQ

[5] = molecular target: T3, GRIP1_3, Q9Y3R0
T3 sequence (Q9Y3R0 247-346, limits assumed, looked up): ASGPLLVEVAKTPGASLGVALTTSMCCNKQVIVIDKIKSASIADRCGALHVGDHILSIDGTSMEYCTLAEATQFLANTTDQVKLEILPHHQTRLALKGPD

[6] = molecular target: DLG4_2, P78352
Sequence of DLG4_2, P78352 (P78352 155-259): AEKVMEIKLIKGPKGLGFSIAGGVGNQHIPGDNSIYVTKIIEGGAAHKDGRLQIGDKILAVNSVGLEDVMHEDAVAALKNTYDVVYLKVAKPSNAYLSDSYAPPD

[7] = molecular target: T4, DFNB31_3, Q9P202
T4 sequence (Q9P202 811-907, limits assumed, looked up): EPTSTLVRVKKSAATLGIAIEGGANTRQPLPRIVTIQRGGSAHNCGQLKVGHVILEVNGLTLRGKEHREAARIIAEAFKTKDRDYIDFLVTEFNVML

[8] = molecular target: T5, SYNJ2BP, P57105
T5 sequence (P57105 8-110, limits assumed, looked up): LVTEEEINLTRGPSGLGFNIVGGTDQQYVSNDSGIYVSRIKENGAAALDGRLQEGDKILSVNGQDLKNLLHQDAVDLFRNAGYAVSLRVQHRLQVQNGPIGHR

[9] = molecular target: MAGI1_2, Q96QZ7
Sequence of MAGI1_2, Q96QZ7 (Q96QZ7 456-580): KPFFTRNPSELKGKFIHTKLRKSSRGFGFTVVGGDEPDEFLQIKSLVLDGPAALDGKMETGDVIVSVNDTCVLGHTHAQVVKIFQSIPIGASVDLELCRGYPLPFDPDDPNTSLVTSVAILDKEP

[10] = molecular target: T6, APBA1_1, Q02410
T6 sequence (Q02410 651-752, limits assumed, looked up): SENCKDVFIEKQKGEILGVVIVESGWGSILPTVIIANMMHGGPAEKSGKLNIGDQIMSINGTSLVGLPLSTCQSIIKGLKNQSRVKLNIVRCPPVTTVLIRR

[11] = molecular target: DLG4_3, P78352
Sequence of DLG4_3, P78352 (P78352 306-403): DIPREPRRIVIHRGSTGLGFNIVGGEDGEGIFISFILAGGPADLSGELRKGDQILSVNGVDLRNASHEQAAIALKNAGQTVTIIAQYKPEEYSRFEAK

[12] = molecular target: CASK, O14936
Sequence of CASK, O14936 (O14936 487-570): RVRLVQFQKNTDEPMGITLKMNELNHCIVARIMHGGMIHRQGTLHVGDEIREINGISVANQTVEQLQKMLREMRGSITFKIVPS

[13] = molecular target: FRMPD2_2, Q68DX3
Sequence of FRMPD2_2, Q68DX3 (Q68DX3 944-1038): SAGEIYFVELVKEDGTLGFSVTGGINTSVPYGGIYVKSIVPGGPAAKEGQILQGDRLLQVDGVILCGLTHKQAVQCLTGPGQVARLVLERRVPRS

[14] = molecular target: GRID2IP_1, A4D2P6
Sequence of GRID2IP_1, A4D2P6 (A4D2P6 1-87): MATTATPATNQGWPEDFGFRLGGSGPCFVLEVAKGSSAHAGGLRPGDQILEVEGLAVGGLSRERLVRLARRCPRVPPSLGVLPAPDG

[15] = molecular target: T7, GRIP1_7, Q9Y3R0
T7 sequence (Q9Y3R0 999-1096, limits assumed, looked up): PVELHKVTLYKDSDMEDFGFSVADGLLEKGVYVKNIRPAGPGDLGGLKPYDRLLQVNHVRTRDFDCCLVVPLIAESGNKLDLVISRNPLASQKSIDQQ

[16] = molecular target: T8, DFNB31_2, Q9P202
T8 sequence (Q9P202 274-371, limits assumed, looked up): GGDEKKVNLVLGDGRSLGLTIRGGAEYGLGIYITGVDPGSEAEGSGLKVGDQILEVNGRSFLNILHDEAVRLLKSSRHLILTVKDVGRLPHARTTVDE

[17] = molecular target: T9, SHANK1, Q9Y566
T9 sequence (Q9Y566 658-767, limits assumed, looked up): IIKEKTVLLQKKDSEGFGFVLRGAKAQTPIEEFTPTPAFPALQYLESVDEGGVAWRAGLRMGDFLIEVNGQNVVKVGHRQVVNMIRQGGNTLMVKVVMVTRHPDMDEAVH

[18] = molecular target: T10, APBA2_2, Q99767
T10 sequence (Q99767 654-744, limits assumed, looked up): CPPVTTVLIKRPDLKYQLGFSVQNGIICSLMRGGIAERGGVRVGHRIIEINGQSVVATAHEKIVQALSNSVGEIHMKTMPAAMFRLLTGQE

[19] = molecular target: T11, MPP6, Q9NZW5
T11 sequence (Q9NZW5 125-219, limits assumed, looked up): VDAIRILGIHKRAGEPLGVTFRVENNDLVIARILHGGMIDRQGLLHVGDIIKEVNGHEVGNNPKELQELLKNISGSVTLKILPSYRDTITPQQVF

[20] = molecular target: GOPC, Q9HD26
[21] = molecular target: GRIP2_3, Q9C0E4
Sequence of GRIP2_3, Q9C0E4 (Q9C0E4 238-339): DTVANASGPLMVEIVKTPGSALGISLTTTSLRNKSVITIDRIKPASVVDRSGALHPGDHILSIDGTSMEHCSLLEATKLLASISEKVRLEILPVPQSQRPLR

[22] = molecular target: TJP1_3, Q07157
Sequence of TJP1_3, Q07157 (Q07157 416-512): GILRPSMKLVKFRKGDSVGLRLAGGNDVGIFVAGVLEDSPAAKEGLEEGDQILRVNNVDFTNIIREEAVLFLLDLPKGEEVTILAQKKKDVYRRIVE

[23] = molecular target: NHERF2_2, Q15599
Sequence of NHERF2_2, Q15599 (Q15599 142-238): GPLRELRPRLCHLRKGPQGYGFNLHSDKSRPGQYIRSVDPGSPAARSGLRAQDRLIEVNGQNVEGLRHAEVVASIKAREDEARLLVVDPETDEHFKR

[24] = molecular target: T12, PDZD7_3, Q9H5P4
T12 sequence (Q9H5P4 857-944, limits assumed, looked up): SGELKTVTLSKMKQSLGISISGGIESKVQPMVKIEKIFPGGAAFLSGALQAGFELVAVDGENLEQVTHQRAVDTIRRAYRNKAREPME

[25] = molecular target: Inadl_8, Q8NI35
Sequence of Inadl_8, Q8NI35 (Q8NI35 1425-1530): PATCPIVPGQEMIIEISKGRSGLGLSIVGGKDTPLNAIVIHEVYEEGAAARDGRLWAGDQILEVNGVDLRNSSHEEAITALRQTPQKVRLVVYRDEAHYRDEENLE

[26] = molecular target: MAGI1_1, Q96QZ7
Sequence of MAGI1_1, Q96QZ7 (Q96QZ7 1-106): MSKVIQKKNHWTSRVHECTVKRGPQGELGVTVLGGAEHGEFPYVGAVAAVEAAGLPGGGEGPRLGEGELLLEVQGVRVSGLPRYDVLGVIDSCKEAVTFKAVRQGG

Sequence of MAST1, Q9Y2H9 (Q9Y2H9 962-1065): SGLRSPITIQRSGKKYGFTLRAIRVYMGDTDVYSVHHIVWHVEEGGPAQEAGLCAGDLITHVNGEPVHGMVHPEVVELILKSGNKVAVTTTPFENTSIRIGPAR
Sequence of PDZRN4_1, Q6ZMN7 (Q6ZMN7 213-318): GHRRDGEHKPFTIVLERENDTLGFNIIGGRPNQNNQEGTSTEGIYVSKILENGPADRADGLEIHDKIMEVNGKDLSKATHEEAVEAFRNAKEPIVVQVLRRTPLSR

**Q.** For TPPAAKKSRI [BAZ1A, Q9NRL2], which pKd [1] is on record?
**A.** 3.9

**Q.** And the pKd [2]?
**A.** below the threshold

**Q.** What about the pKd [3] of the same binder?
**A.** below the threshold

**Q.** What about the pKd [4] of the same binder?
**A.** below the threshold

**Q.** And the pKd [5]?
**A.** below the threshold

**Q.** What about the pKd [6] of the same binder?
**A.** 3.85

**Q.** What about the pKd [7] of the same binder?
**A.** 4.08

**Q.** What about the pKd [8] of the same binder?
**A.** below the threshold

**Q.** And the pKd [9]?
**A.** below the threshold

**Q.** What about the pKd [10] of the same binder?
**A.** below the threshold

**Q.** What about the pKd [11] of the same binder?
**A.** below the threshold

**Q.** What about the pKd [12] of the same binder?
**A.** below the threshold

**Q.** And the pKd [13]?
**A.** below the threshold

**Q.** And the pKd [14]?
**A.** below the threshold

**Q.** What about the pKd [15] of the same binder?
**A.** below the threshold

**Q.** What about the pKd [16] of the same binder?
**A.** below the threshold

**Q.** And the pKd [17]?
**A.** 3.53

**Q.** What about the pKd [18] of the same binder?
**A.** below the threshold

**Q.** What about the pKd [19] of the same binder?
**A.** below the threshold

**Q.** And the pKd [20]?
**A.** 4.06

**Q.** And the pKd [21]?
**A.** below the threshold

**Q.** And the pKd [22]?
**A.** below the threshold

**Q.** What about the pKd [23] of the same binder?
**A.** 3.58

**Q.** And the pKd [24]?
**A.** 4.52

**Q.** What about the pKd [25] of the same binder?
**A.** 4.35

**Q.** What about the pKd [26] of the same binder?
**A.** below the threshold

**Q.** With LSEFKAMDSI [CTNNA1, P35221] as the binder, how does the pKd [1] read?
**A.** below the threshold

**Q.** What about the pKd [2] of the same binder?
**A.** below the threshold

**Q.** And the pKd [3]?
**A.** below the threshold

**Q.** What about the pKd [4] of the same binder?
**A.** below the threshold

**Q.** What about the pKd [5] of the same binder?
**A.** below the threshold

**Q.** What about the pKd [6] of the same binder?
**A.** below the threshold

**Q.** What about the pKd [7] of the same binder?
**A.** below the threshold

**Q.** What about the pKd [8] of the same binder?
**A.** below the threshold

**Q.** And the pKd [9]?
**A.** below the threshold

**Q.** And the pKd [10]?
**A.** below the threshold

**Q.** And the pKd [11]?
**A.** below the threshold

**Q.** What about the pKd [12] of the same binder?
**A.** below the threshold

**Q.** And the pKd [13]?
**A.** below the threshold

**Q.** And the pKd [14]?
**A.** below the threshold

**Q.** What about the pKd [15] of the same binder?
**A.** below the threshold

**Q.** What about the pKd [16] of the same binder?
**A.** below the threshold

**Q.** And the pKd [17]?
**A.** below the threshold

**Q.** And the pKd [18]?
**A.** below the threshold

**Q.** What about the pKd [19] of the same binder?
**A.** below the threshold

**Q.** And the pKd [20]?
**A.** below the threshold

**Q.** What about the pKd [21] of the same binder?
**A.** below the threshold

**Q.** And the pKd [22]?
**A.** below the threshold

**Q.** And the pKd [23]?
**A.** below the threshold

**Q.** What about the pKd [24] of the same binder?
**A.** below the threshold

**Q.** What about the pKd [25] of the same binder?
**A.** below the threshold

**Q.** And the pKd [26]?
**A.** below the threshold
